According to publication PMC5646240, “Norovirus Escape from Broadly Neutralizing Antibodies Is Limited to Allostery-Like Mechanisms” (mSphere, 2017):

B1: monoclonal antibody 2D3.7 (IgA) (antibody, V domains shown)
VH: VQLQESGPGLVAPSQSLSITCTVSGFSLTSYGVHWIRQPSGKGLEWLGVIWPGGSTNYNSALMSRLSISKDNSQSQVVLKMNSLQTDDSAMYYCARGRVAAWFAYWGQGTLVTVSA
VL: DIVMTQSQKFMSTSVGDRVSVTCTASQNVGTSVAWYLQRPGQSPEALIYSASYRNSGVPDRFTGSGSGTDFTLTISNVQSEDLADYFCQQYNNYPFTFGSGTKLEIK
notes: VH before the CDR3 loop; heavy chain CDR3 loop as printed; nearly identical to the light chain variable domain of PDB 2AEQ; IgA; also called MAb 2D3; IgA MAb 2D3
B2: murine norovirus MNV1.CW3 (GV/MNV1/2002/USA) virions, capsid protein (natural protein)
chain: MRMSDGAAPKANGSEASGQDLVPAAVEQAVPIQPVAGAALAAPAAGQINQIDPWIFQNFVQCPLGEFSISPRNTPGEILFDLALGPGLNPYLAHLSAMYTGWVGNMEVQLVLAGNAFTAGKVVVALVPPYFPKGSLTTAQITCFPHVMCDVRTLEPIQLPLLDVRRVLWHATQDQEESMRLVCMLYTPLRTNSPGDESFVVSGRLLSKPAADFNFVYLTPPIERTIYRMVDLPVIQPRLCTHARWPAPVYGLLVDPSLPSNPQWQNGRVHVDGTLLGTTPISGSWVSCFAAEAAYKFQSGTGEVATFTLIEQDGSAYVPGDRAAPLGYPDFSGQLEIEVQTETTKTGDKLKVTTFEMILGPTTNADQAPYQGRVFASVTAAASLDLVDGRVRAVPRSIYGFQDTIPEYNDGLLVPLAPPIGPFLPGEVLLRFRTYMRQIDTADAAAEAIDCALPQEFVSWFASNAFTVQSEALLLRYRNTLTGQLLFECKLYNEGYIALSYSGSGPLTFPTDGIFEVVSWVPRLYQLASVGSLATGRMLKQ
notes: capsid protein (VP1) of murine norovirus 1, strain MNV1.CW3, in whole infectious virions; S domain and P domain; Whole virions with a T=3 capsid; the antigen of the antibodies is the capsid protein; The UniProt entry recalled is of MNV1, not checked for the CW3 clone; also called MVV1; source: RAW 264.7 cells, infected; concentrated virus stock (ELISA); purified virions (ultracentrifugation, …)

Assays:
[1] = biological target: murine norovirus S99 (Berlin/06/06/DE) virions, capsid protein (murine norovirus (strain S99))
[2] = biological target: murine norovirus WU11 (GV/WU11/2005/USA) virions, capsid protein (Murine norovirus GV/WU11/2005/USA, UniProt A7YJZ2, strain); experiment: cell-based or functional assay
[3] = biological target: murine norovirus WU20 (GV/WU20/2005/USA) virions, capsid protein (Murine norovirus GV/WU20/2005/USA, UniProt A7YJZ8, strain); experiment: cell-based or functional assay
[4] = biological target: murine norovirus MNV1.CW3 (GV/MNV1/2002/USA) virions, capsid protein (murine norovirus (MNV1.CW3), UniProt Q80J94); experiment: cell-based or functional assay
[5] = biological target: murine norovirus CR1 (GV/CR1/2005/USA) virions, capsid protein (Murine norovirus GV/CR1/2005/USA, UniProt A7YK19, strain); experiment: cell-based or functional assay
[6] = biological target: murine norovirus CR3 (GV/CR3/2005/USA) virions, capsid protein (Murine norovirus GV/CR3/2005/USA, UniProt A7YK22, strain); experiment: cell-based or functional assay
[7] = biological target: murine norovirus CR6 (GV/CR6/2005/USA) virions, capsid protein (Murine norovirus GV/CR6/2005/USA, UniProt A7YK31, strain); experiment: cell-based or functional assay
[8] = biological target: murine norovirus CR7 (GV/CR7/2005/USA) virions, capsid protein (Murine norovirus GV/CR7/2005/USA, UniProt A7YK34, strain); experiment: cell-based or functional assay
[9] = biological target: murine norovirus MNV3 virions, capsid protein (Murine norovirus, strain MNV3, UniProt Q38JA1, strain); experiment: cell-based or functional assay
[10] = biological target: murine norovirus MNV4 virions, capsid protein (Murine norovirus, strain MNV4, UniProt Q38J98, strain); experiment: cell-based or functional assay
[11] = biological target: T1, human norovirus genogroup I Norwalk virus (NV) virus-like particles (Human norovirus GI, strain of AY502016 …, UniProt Q6EAV2); experiment: ELISA; data not shown; HuNoV VLPs (1 µg of each VLP per well in 100 µl PBS, 24 h at 4°C) tested with the MAbs; conditions: both partners purified
T1 construct: capsid protein of human norovirus genogroup I strain Norwalk virus, as virus-like particles; also called Norwalk virus VLP; source: provided by Grant Hansman (University of Heidelberg); expressed and purified as previously described (62)

[12] = biological target: T2, human norovirus GII.4 Saga (2006-Saga) virus-like particles (Norovirus Hu/GII-4/Saga1/2006/JP …, UniProt B5BTR4, strain); experiment: as above; conditions: both partners purified
T2 construct: capsid protein of human norovirus GII.4 Saga (2006), as virus-like particles; also called 2006-Saga [GII.4]; source: provided by Grant Hansman (University of Heidelberg); expressed and purified as previously described (62)

[13] = biological target: T3, human norovirus GII.4 Sydney (2012-Sydney) virus-like particles (Human norovirus GII.4 …, UniProt K4LM89, strain); experiment: as above; conditions: both partners purified
T3 construct: capsid protein of human norovirus GII.4 Sydney (2012), as virus-like particles; also called 2012-Sydney [GII.4]; source: provided by Grant Hansman (University of Heidelberg); expressed and purified as previously described (62)

[14] = biological target: T4, human norovirus GII.10 Vietnam026 virus-like particles (Human norovirus GII.10 Vietnam026, UniProt Q5F4T5, strain); experiment: as above; conditions: both partners purified
T4 construct: capsid protein of human norovirus GII.10 Vietnam026, as virus-like particles; also called Vietnam026 [GII.10]; source: provided by Grant Hansman (University of Heidelberg); expressed and purified as previously described (62)

[15] = biological target: T5, human norovirus GII.12 Hiro virus-like particles (Human norovirus GII.12 Hiro, UniProt Q54AD6, strain); experiment: as above; conditions: both partners purified
T5 construct: capsid protein of human norovirus GII.12 Hiro, as virus-like particles; also called Hiro [GII.12]; source: provided by Grant Hansman (University of Heidelberg); expressed and purified as previously described (62)

[16] = biological target: the molecule itself; experiment: cryo-EM structure; 2D3 Fab added to purified infectious MNV1 virions; image reconstruction at 8.7 Å (FSC 0.143) / 9.9 Å (FSC 0.5), fitted with atomic models of the P domain dimer and a modelled Fab

Binder | plaque neutralization assay: 5 × 10^4 PFU with 0 to 1,000 ng MAb, 30 min at 37°C; virus titer relative to no antibody [1] [log] | plaque neutralization assay: 5 × 10^4 PFU with 0 to 1,000 ng MAb, 30 min at 37°C; virus titer relative to no antibody [2] [log] | plaque neutralization assay: 5 × 10^4 PFU with 0 to 1,000 ng MAb, 30 min at 37°C; virus titer relative to no antibody [3] [log] | plaque neutralization assay: 5 × 10^4 PFU with 0 to 1,000 ng MAb, 30 min at 37°C; virus titer relative to no antibody [4] [log] | plaque neutralization assay: 5 × 10^4 PFU with 0 to 1,000 ng MAb, 30 min at 37°C; virus titer relative to no antibody [5] [log] | plaque neutralization assay: 5 × 10^4 PFU with 0 to 1,000 ng MAb, 30 min at 37°C; virus titer relative to no antibody [6] [log] | plaque neutralization assay: 5 × 10^4 PFU with 0 to 1,000 ng MAb, 30 min at 37°C; virus titer relative to no antibody [7] [log] | plaque neutralization assay: 5 × 10^4 PFU with 0 to 1,000 ng MAb, 30 min at 37°C; virus titer relative to no antibody [8] [log] | plaque neutralization assay: 5 × 10^4 PFU with 0 to 1,000 ng MAb, 30 min at 37°C; virus titer relative to no antibody [9] [log] | plaque neutralization assay: 5 × 10^4 PFU with 0 to 1,000 ng MAb, 30 min at 37°C; virus titer relative to no antibody [10] [log] | binding result [11] | binding result [12] | binding result [13] | binding result [14] | binding result [15] | binding result [16]
B1 | > 1 | ≥ 1 | ≥ 1 | ≥ 1 | ≥ 1 | ≥ 1 | ≥ 1 | ≥ 1 | ≥ 1 | ≥ 1 | no binding | no binding | no binding | no binding | no binding | 
B2 |  |  |  |  |  |  |  |  |  |  |  |  |  |  |  | binds
